Test results from patent US20030026800A1.

Assays:
[1] = target: antigen of Daudi B lymphoblastoid cells to which the mAbs of the invention bind; assay: FACS double labelling, peripheral blood lymphocytes of healthy individuals
[2] = target: antigen of Daudi B lymphoblastoid cells to which the mAbs of the invention bind; assay: FACS double labelling, peripheral blood lymphocytes of colon carcinoma patients
[3] = target: antigen of Daudi B lymphoblastoid cells to which the mAbs of the invention bind; assay: FACS double labelling, peripheral blood lymphocytes of breast carcinoma patients
[4] = target: antigen of Daudi B lymphoblastoid cells to which the mAbs of the invention bind; assay: FACS double labelling, peripheral blood lymphocytes of prostate carcinoma patients

- percent of CD3+ BAT+ cells (of total CD3+ cells) [1]: 25%
- percent of CD3+ BAT+ cells (of total CD3+ cells) [2]: 7%
- percent of CD3+ BAT+ cells (of total CD3+ cells) [3]: 10%
- percent of CD3+ BAT+ cells (of total CD3+ cells) [4]: 50%
B1: mouse BAT antibody (antibody, V domains shown)
VH: QIQLVQSGPELKKPGETVKISCKASGYTFTNYGMNWVKQAPGKGLKWMGWINTDSGESTYAEEFKGRFAFSLETSANTAYLQINNLNNEDTATYFCVRVGYDALDYWGQGTSVTVSS
VL: QIVLTQSPAIMSASPGEKVTITCSARSSVSYMHWFQQKPGTSPKLWIYRTSNLASGVPARFSGSGSGTSYCLTISRMEAEDAATYYCQQRSSFPLTFGSGTKLEIK
